Results: patent US20210380703A1 (RIGEL PHARMACEUTICALS, published 2021)

Experiments:
human ACVR2A [1] = biological target: T1, human ACVR2A (human, UniProt P27037 20-135, limits assumed); assay: ELISA
T1 construct: also called activin receptor, type II A
How it was run: (§1)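 Monoclonal antibodies were first applied to human or mouse ACVR2A, alongside biotinylated goat anti-human kappa light chain (positive control) and human Fc (negative control); binding was then determined by ELISA.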
T1 sequence (P27037 20-135 limits assumed): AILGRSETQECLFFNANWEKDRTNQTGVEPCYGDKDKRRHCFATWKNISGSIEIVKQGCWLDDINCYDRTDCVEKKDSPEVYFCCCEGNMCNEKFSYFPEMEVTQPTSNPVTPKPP

mouse ACVR2A [2] = biological target: mouse ACVR2A (mouse, UniProt P27038 20-135, limits assumed); assay: ELISA
How it was run: as §1
Target sequence in this assay (P27038 20-135 limits assumed): as the sequence (P27037 20-135 limits assumed) above, with K20R, V73I counted along it

[3] = biological target: T2, biotinylated goat anti-human kappa light chain; assay: ELISA, positive control
T2 construct: positive control of the ELISA
How it was run: as §1

human ACVR2A [4] = biological target: T3, human ACVR2A (human, UniProt P27037 20-135, limits assumed); assay: ELISA
T3 construct: coated antigen of the initial ELISA; also called activin receptor, type II A
How it was run: as §1
T3 sequence (P27037 20-135 limits assumed): as the sequence (P27037 20-135 limits assumed) above

mouse ACVR2A [5] = biological target: T4, mouse ACVR2A (mouse, UniProt P27038 20-135, limits assumed); assay: ELISA
T4 construct: coated antigen of the initial ELISA
How it was run: as §1
T4 sequence (P27038 20-135 limits assumed): as the sequence (P27037 20-135 limits assumed) above, with K20R, V73I counted along it

[6] = biological target: T5, biotinylated goat anti-human kappa light chain; assay: ELISA, positive control; remark: listed apart in the source
T5 construct: positive control of the ELISA
How it was run: as §1

Human ACVR2A [7] = biological target: T6, Human ACVR2A (human, UniProt P27037 20-135, limits assumed); assay: ELISA
T6 construct: also called activin receptor, type II A
How it was run: as §1

Goat anti-Human Kappa = biological target: T7, Goat anti-Human Kappa; assay: ELISA, positive control
T7 construct: Positive control of the ELISA; also called biotinylated goat anti-human kappa light chain
How it was run: as §1
Note: test concentration or dose not given here.

T6 sequence (P27037 20-135 limits assumed): as the sequence (P27037 20-135 limits assumed) above

Binder | optical density (human ACVR2A [1]) | optical density (mouse ACVR2A [2]) | optical density [3] | optical density (human ACVR2A [4]) | optical density (mouse ACVR2A [5]) | optical density [6] | optical density (Human ACVR2A [7]) | optical density (Goat anti-Human Kappa)
374_A10 (antibody, V domains shown, Group II) VH: EVQLLESGGGLVQPGGSLRLSCAASGFTFSSYGMHWVRQAPGKGLEWVSGINYNGGYTSYADSVKGRFTISRDNSKNTLYLQMNSLRAEDTAVYYCARAATWHDTHLDYWGQGTLVTVSS VL: DIQMTQSPSSLSASVGDRVTITCRASQSILSYVNWYQQKPGKAPKLLIYAATSRASGVPSRFSGSGSGTDFTLTISSLQPEDFATYYCQQSYDTPLTFGGGTKVEIK | 3.56 OD | 3.59 OD | 3 OD | – | – | – | – | –
368_C02 (antibody, V domains shown, Group III) VH: EVQLLESGGGLVQPGGSLRLSCAASGFTFDDYSMNWVRQAPGKGLEWVANINYNGGYKGYADSVKGRFTISRDNSKNTLYLQMNSLRAEDTAVYYCARGANWHDTHLDYWGQGTLVTVSS VL: DIQMTQSPSSLSASVGDRVTITCRASQSISTYVNWYQQKPGKAPKLLIYAATSLASGVPSRFSGSGSGTDFTLTISSLQPEDFATYYCQQSYSTPLTFGGGTKVEIK | – | – | – | 1.38 OD | 1.49 OD | 3.51 OD | – | –
375_H07 (antibody, V domains shown, Group III) VH: EVQLLESGGGLVQPGGSLRLSCAASGFTFSSYSMNWVRQAPGKGLEWVAGINYNGGYTSYADSVKGRFTISRDNSKNTLYLQMNSLRAEDTAVYYCARGANWHDTALDYWGQGTLVTVSS VL: DIQMTQSPSSLSASVGDRVTITCRASQSILSYLNWYQQKPGKAPKLLIYAATSLASGVPSRFSGSGSGTDFTLTISSLQPEDFATYYCQQSYSSPLTFGGGTKVEIK | – | – | – | 3.3 OD | 3.29 OD | 3.27 OD | – | –
375_H05 (antibody, V domains shown, Group III) VH: EVQLLESGGGLVQPGGSLRLSCAASGFTFSSYSMNWVRQAPGKGLEWVSNINYNGGYTGYADSVKGRFTISRDNSKNTLYLQMNSLRAEDTAVYYCARGANWHDTALDYWGQGTLVTVSS VL: DIQMTQSPSSLSASVGDRVTITCRASQSILSYVNWYQQKPGKAPKLLIYAATSRASGVPSRFSGSGSGTDFTLTISSLQPEDFATYYCQQSYDTPLTFGGGTKVEIK | – | – | – | 3.35 OD | 3.33 OD | 3.17 OD | – | –
369_A03 (antibody, V domains shown) VH: EVQLLESGGGLVQPGGSLRLSCAASGFTFSSYGMNWVRQAPGKGLEWVSNINYNGGYTGYADSVKGRFTISRDNSKNTLYLQMNSLRAEDTAVYYCARSANWHDTALDYWGQGTLVTVSS VL: DIQMTQSPSSLSASVGDRVTITCRASQSILTYLNWYQQKPGKAPKLLIYAVTSRHSGVPSRFSGSGSGTDFTLTISSLQPEDFATYYCQQGYDLPLTFGGGTKVEIK | – | – | – | – | – | – | 0.451 OD | 3.17 OD
376_A03 (antibody, V domains shown, Group III) VH: EVQLLESGGGLVQPGGSLRLSCAASGFTFSSYGMNWVRQAPGKGLEWVAGINYNGGYTGYADSVKGRFTISRDNSKNTLYLQMNSLRAEDTAVYYCARGANWHDTALDYWGQGTLVTVSS VL: DIQMTQSPSSLSASVGDRVTITCRASQSILTYLNWYQQKPGKAPKLLIYAATSRASGVPSRFSGSGSGTDFTLTISSLQPEDFATYYCQQSYSTPLTFGGGTKVEIK | – | – | – | 3.61 OD | 3.65 OD | 3.23 OD | – | –
365_A05 (antibody, V domains shown, Group II) VH: EVQLLESGGGLVQPGGSLRLSCAASGFTFSSYGMHWVRQAPGKGLEWVSSINYNGGYTSYADSVKGRFTISRDNSKNTLYLQMNSLRAEDTAVYYCARAATWHDTHLDYWGQGTLVTVSS VL: not shown | 2.34 OD | 2.23 OD | 3.45 OD | – | – | – | – | –
375_F08 (antibody, V domains shown, Group III) VH: EVQLLESGGGLVQPGGSLRLSCAASGFTFSSYGMNWVRQAPGKGLEWVSSINYNSGYKSYADSVKGRFTISRDNSKNTLYLQMNSLRAEDTAVYYCARGANWHDTHLDYWGQGTLVTVSS VL: DIQMTQSPSSLSASVGDRVTITCRASQSILSYLNWYQQKPGKAPKLLIYAATSRHSGVPSRFSGSGSGTDFTLTISSLQPEDFATYYCQQSYDNPLTFGGGTKVEIK | – | – | – | 3.5 OD | 3.58 OD | 3.31 OD | – | –
375_F07 (antibody, V domains shown, Group III) VH: EVQLLESGGGLVQPGGSLRLSCAASGFTFSDYSMNWVRQAPGKGLEWVSNINYNGGYTGYADSVKGRFTISRDNSKNTLYLQMNSLRAEDTAVYYCARGANWHDTALDYWGQGTLVTVSS VL: DIQMTQSPSSLSASVGDRVTITCRASQSILSYLNWYQQKPGKAPKLLIYAATSRASGVPSRFSGSGSGTDFTLTISSLQPEDFATYYCQQSYDSPLTFGGGTKVEIK | – | – | – | 3.67 OD | 3.71 OD | 3.22 OD | – | –
376_B10 (antibody, V domains shown, Group III) VH: EVQLLESGGGLVQPGGSLRLSCAASGFTFSDYSMNWVRQAPGKGLEWVAGINYNGGYKGYADSVKGRFTISRDNSKNTLYLQMNSLRAEDTAVYYCARGANWHDTALDYWGQGTLVTVSS VL: DIQMTQSPSSLSASVGDRVTITCRASQSILSYLNWYQQKPGKAPKLVIYAATSLASGVPSRFSGSGSGTDFTLTISSLQPEDFATYYCQQSYSTPLTFGGGTKVEIK | – | – | – | 3.6 OD | 3.67 OD | 3.46 OD | – | –
375_G04 (antibody, V domains shown, Group III) VH: EVQLLESGGGLVQPGGSLRLSCAASGFTFSSYGMNWVRQAPGKGLEWVASINYNSGYTGYADSVKGRFTISRDNSKNTLYLQMNSLRAEDTAVYYCARGANWHDTHLDYWGQGTLVTVSS VL: DIQMTQSPSSLSASVGDRVTITCRASQSIVSYVNWYQQKPGKAPKLLIYAATSLASGVPSRFSGSGSGTDFTLTISSLQPEDFATYYCQQSYDSPLTFGGGTKVEIK | – | – | – | 2.91 OD | 3.29 OD | 3.19 OD | – | –
375_G05 (antibody, V domains shown, Group III) VH: EVQLLESGGGLVQPGGSLRLSCAASGFTFSSYSMNWVRQAPGKGLEWVAGINYNGGYTSYADSVKGRFTISRDNSKNTLYLQMNSLRAEDTAVYYCARGANWHDTALDYWGQGTLVTVSS VL: DIQMTQSPSSLSASVGDRVTITCRASQSIVSYLNWYQQKPGKAPKLLIYAVTSRASGVPSRFSGSGSGTDFTLTISSLQPEDFATYYCQQSYDSPLTFGGGTKVEIK | – | – | – | 3.71 OD | 3.75 OD | 3.26 OD | – | –
365_B04 (antibody, V domains shown, Group I) VH: EVQLLESGGGLVQPGGSLRLSCAASGFTFSSYGMHWVRQAPGKGLEWVASINYNSGYTSYADSVKGRFTISRDNSKNTLYLQMNSLRAEDTAVYYCARAANWHDTALDYWGQGTLVTVSS VL: DIQMTQSPSSLSASVGDRVTITCRASQSILTYLNWYQQKPGKAPKLLIYAATSRHSGVPSRFSGSGSGTDFTLTISSLQPEDFATYYCQQSDESPLTFGGGTKVEIK | 1.99 OD | 2.18 OD | 3.12 OD | – | – | – | – | –
376_B03 (antibody, V domains shown, Group III) VH: EVQLLESGGGLVQPGGSLRLSCAASGFTFSSYSMNWVRQAPGKGLEWVAGINYNSGYKSYADSVKGRFTISRDNSKNTLYLQMNSLRAEDTAVYYCARGANWHDTALDYWGQGTLVTVSS VL: DIQMTQSPSSLSASVGDRVTITCRASQSILSYVNWYQQKPGKAPKLVIYAVTSRHSGVPSRFSGSGSGTDFTLTISSLQPEDFATYYCQQSYDSPLTFGGGTKVEIK | – | – | – | 3.68 OD | 3.67 OD | 3.52 OD | – | –

Other lines, results leading:

optical density (human ACVR2A [1]) | optical density (mouse ACVR2A [2]) | optical density [3] | optical density (human ACVR2A [4]) | optical density (mouse ACVR2A [5]) | optical density [6] | optical density (Human ACVR2A [7]) | optical density (Goat anti-Human Kappa) | Binder
– | – | – | 3.38 OD | 3.44 OD | 3.44 OD | – | – | 376_D07 (antibody, V domains shown, Group III) VH: EVQLLESGGGLVQPGGSLRLSCAASGFTFDSYSMNWVRQAPGKGLEWVSGINYNGGYTSYADSVKGRFTISRDNSKNTLYLQMNSLRAEDTAVYYCARGANWHDTHLDYWGQGTLVTVSS VL: not shown
– | – | – | 2.77 OD | 3.02 OD | 3.18 OD | – | – | 376_F01 (antibody, V domains shown, Group III) VH: EVQLLESGGGLVQPGGSLRLSCAASGFTFSDYSMNWVRQAPGKGLEWVAGINYNGGYKSYADSVKGRFTISRDNSKNTLYLQMNSLRAEDTAVYYCARGANWHDTALDYWGQGTLVTVSS VL: not shown
– | – | – | 3.61 OD | 3.63 OD | 3.46 OD | – | – | 376_C08 (antibody, V domains shown, Group III) VH: EVQLLESGGGLVQPGGSLRLSCAASGFTFDSYSMNWVRQAPGKGLEWVAGINYNSGYTGYADSVKGRFTISRDNSKNTLYLQMNSLRAEDTAVYYCARGANWHDTHLDYWGQGTLVTVSS VL: not shown
– | – | – | 3.68 OD | 3.65 OD | 3.47 OD | – | – | 376_E11 (antibody, V domains shown, Group III) VH: EVQLLESGGGLVQPGGSLRLSCAASGFTFSSYSMNWVRQAPGKGLEWVSGINYNGGYTSYADSVKGRFTISRDNSKNTLYLQMNSLRAEDTAVYYCARGANWHDTALDYWGQGTLVTVSS VL: DIQMTQSPSSLSASVGDRVTITCRASQSILTYVNWYQQKPGKAPKLVIYAATSRASGVPSRFSGSGSGTDFTLTISSLQPEDFATYYCQQSYELPLTFGGGTKVEIK
– | – | – | 3.3 OD | 3.38 OD | 3.41 OD | – | – | 376_E02 (antibody, V domains shown, Group III) VH: EVQLLESGGGLVQPGGSLRLSCAASGFTFSSYSMNWVRQAPGKGLEWVAGINYNGGYKGYADSVKGRFTISRDNSKNTLYLQMNSLRAEDTAVYYCARGANWHDTALDYWGQGTLVTVSS VL: DIQMTQSPSSLSASVGDRVTITCRASQSILSYVNWYQQKPGKAPKLVIYAATSRHSGVPSRFSGSGSGTDFTLTISSLQPEDFATYYCQQSDNTPLTFGGGTKVEIK
– | – | – | 3.63 OD | 3.65 OD | 3.4 OD | – | – | 376_C04 (antibody, V domains shown, Group III) VH: EVQLLESGGGLVQPGGSLRLSCAASGFTFSSYGMNWVRQAPGKGLEWVSNINYNGGYTGYADSVKGRFTISRDNSKNTLYLQMNSLRAEDTAVYYCARGANWHDTALDYWGQGTLVTVSS VL: DIQMTQSPSSLSASVGDRVTITCRASQSILSYVNWYQQKPGKAPKLLIYAVTSRHSGVPSRFSGSGSGTDFTLTISSLQPEDFATYYCQQSYDNPLTFGGGTKVEIK
